The target in the data set is Sp1 (Homo sapiens, UniProt P08047 P08047:2-785). Put plainly: EMSA; poly dI/dC, Mg, Zn, room temperature. The following applies: label: 32P. As to the method:
50,000 CPM of the cellular injury response element, 1 μg poly dI/dC, 10 μg nuclear extract or 2 footprinting units of human Sp1 protein (Promega, Madison, Wis.) were suspended in 12.5 mM HEPES, pH 7.8, 50 mM KCl, 6.25 mM MgCl_2, 5 μM ZnSO_4, 10% glycerol, and 0.05% Nonidet P-40 and incubated for 30 minutes at room temperature. The bands were separated on a 4% polyacrylamide/0.5 X TBE (45 mM Tris-borate, […]) gel, dried and were visualized using the Molecular Imager System (Bio-Rad, Hercules, Calif.). Supershift assays were performed as above with the addition of […] anti-Sp1 antibody (PEP2, Santa Cruz Biotechnology, Inc.) or non-specific rabbit antibody to the reaction mixture after the 30 minute incubation and incubating for an additional 30 minutes.
Nuclear extracts were incubated with ^32P-labeled cellular injury response element and separated on a 0.5X TBE/4% polyacrylamide gel. […] However, no shift was observed when nuclear extracts were incubated with the Sp 1-mutant cellular injury response element (labeled A in FIGS. 7 and 8; a non-specifically shifted band is labeled A in both FIGS. 7 and 8). Thus, the binding of the protein responsible for the gel shift of the cellular injury response element is dependent upon the presence of functional Sp1 site within the cellular injury response element.
(In general: In EMSA bound probe runs differently from free probe, usually more slowly.)

Sp1, sequence (P08047 2-785, one chain of several): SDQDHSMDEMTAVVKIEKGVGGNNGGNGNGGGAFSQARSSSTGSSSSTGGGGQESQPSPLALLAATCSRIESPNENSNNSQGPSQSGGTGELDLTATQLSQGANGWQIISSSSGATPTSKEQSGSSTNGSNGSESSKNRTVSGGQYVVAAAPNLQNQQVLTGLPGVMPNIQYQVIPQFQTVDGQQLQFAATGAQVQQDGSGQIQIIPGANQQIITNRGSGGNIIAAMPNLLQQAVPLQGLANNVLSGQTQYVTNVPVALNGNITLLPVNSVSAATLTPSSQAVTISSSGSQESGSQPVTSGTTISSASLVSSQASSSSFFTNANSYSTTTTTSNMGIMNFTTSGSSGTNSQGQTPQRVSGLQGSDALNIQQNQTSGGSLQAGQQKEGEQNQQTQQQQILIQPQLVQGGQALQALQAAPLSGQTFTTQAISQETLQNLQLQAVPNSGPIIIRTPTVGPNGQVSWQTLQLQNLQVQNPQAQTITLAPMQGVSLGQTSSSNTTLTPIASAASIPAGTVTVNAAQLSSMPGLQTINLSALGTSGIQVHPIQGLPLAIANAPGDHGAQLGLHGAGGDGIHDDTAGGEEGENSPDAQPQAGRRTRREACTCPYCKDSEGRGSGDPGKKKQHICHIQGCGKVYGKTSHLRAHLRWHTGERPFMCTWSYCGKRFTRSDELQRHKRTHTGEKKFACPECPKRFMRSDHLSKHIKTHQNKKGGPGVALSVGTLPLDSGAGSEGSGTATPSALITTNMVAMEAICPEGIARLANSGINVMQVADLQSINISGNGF

B1: CIRE (GADD153 -74 to -35) (dsDNA)
DNA 1: AGGCTCCTGGGTCCCGCCCCCCAAAAGAGGGGACGGGCC
DNA 2: GGCCCGTCCCCTCTTTTGGGGGGCGGGACCCAGGAGCCT
For B1, the binding result was “binds”.
